Measured values as given in US20260042834A1 (HBM ALPHA THERAPEUTICS, published 2026).

Key:
[1] = biological target: T1, corticotropin-releasing hormone (CRH) peptide (human and mouse (same sequence), not fully specified); test: cell-based or functional assay
T1 peptide: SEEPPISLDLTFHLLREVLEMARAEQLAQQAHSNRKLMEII

CRH (CT-Biotin) [2] = biological target: T2, CRH (CT-Biotin) (human and mouse (same sequence), biotin on an added C-terminal K (CRH-K-Biotin)); test: ELISA, biotinylated CRH on streptavidin plate
T2 construct: also called Peptide 4 (CRH-Biotin)
T2 peptide: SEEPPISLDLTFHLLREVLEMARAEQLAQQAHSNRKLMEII
Description: (§1) Streptavidin (Thermo, Cat: 21125) was diluted in PBS to a concentration of 2 μg/ml. 100 μl of diluted streptavidin was added per well to ELISA microplates, and the plates were incubated overnight at 4° C. […] 100 μL of 3,3′,5,5′-tetramethylbenzidine (TMB) substrate (Biopanda, Cat: TMB-S-003) was added, and the plates were incubated at room temperature for 15 minutes. 100 μL of ELISA stopping solution (Solarbio, Cat #: C1058) was added to terminate the reaction, and the optical density at 450 nm (OD450 nm) was determined by an ELISA plate reader (Molecular Devices, Spectra max 384 plus).

CRH (NT-Biotin) = biological target: T3, CRH (NT-Biotin) (human and mouse, not fully specified; biotin at the N-terminus); test: ELISA, N-terminally biotinylated CRH on streptavidin-coated plate
T3 construct: also called Biotin-CRH; N-terminally biotinylated corticotropin-releasing hormone
T3 peptide: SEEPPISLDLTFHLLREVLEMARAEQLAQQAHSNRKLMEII
Description: as §1

[3] = biological target: T4, corticotropin-releasing hormone (CRH) peptide (human and mouse, not fully specified); test: cell-based or functional assay
T4 peptide: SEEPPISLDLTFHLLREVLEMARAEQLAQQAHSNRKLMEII

CRH (CT-Biotin) [4] = biological target: T5, CRH (CT-Biotin) (human and mouse, biotin on the added C-terminal K (-K-Biotin)); test: ELISA, C-terminally biotinylated CRH on streptavidin-coated plate
T5 construct: also called Peptide 4 (CRH-Biotin); C-terminally biotinylated corticotropin-releasing hormone
T5 peptide: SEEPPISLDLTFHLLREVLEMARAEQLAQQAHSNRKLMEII
Description: as §1

Binder | hCRHR1 Luciferase Reporter Assay IC50 [1] | mCrhr1 Luciferase Reporter Assay IC50 [1] | EC50 (CRH (CT-Biotin) [2]) | EC50 (CRH (NT-Biotin)) | hCRHR1 Reporter IC50 [3] | EC50 (CRH (CT-Biotin) [4])
PR302055 (antibody, human IgG1, kappa, V domains shown, humanized variant of PR301777) VH: EMQLVESGGGLVQPGGSLKLSCAASGFTFSNYWMNWVRQASGKGLEWVAEIRLKSNNYATHYAESVKGRFTISRDDSKSTVYLQMNSLKTEDTAVYYCTVGTLVYWGQGTLVTVSS VL: DIQLTQSPSSLSASVGDRVTITCRASQSVSTSTYNYMHWFQQKPGKAPKLLIKFASNLESGVPSRFSGSGSGTDFTLTISSLQPEDTATYYCQHSWEIPYTFGQGTKLEIKR | 1.35 nM | 4.67 nM | 0.013 nM |  |  | 
PR302333 (antibody, human IgG1, kappa, V domains shown, Mouse variable domains, expressed recombinantly with human IgG1 wildtype Fc; also called Series 7 mAb) VH: QIQLVQSGPELKKPGETVKISCKASGYTFTNFGMNWVKQAPGKVLKWMGWINTYTGEPIYADDFKGRFAFSLETSASAAYLQINNLKNEDTATYFCSRSTMITTGGVFAYWGQGTLVTVSA VL: not shown |  |  |  | 0.035 nM | 1.92 nM | 0.022 nM
PR302332 (antibody, human IgG1, kappa, V domains shown, Mouse variable domains, expressed recombinantly with human IgG1 wildtype Fc; also called Series 7 mAb) VH: QIQLVQSGPELKKPGETVKISCKASGYTFTNFGMHWVKQAPGKVLKWMGWINTYTGEPIYAADFKGRFAFSLETSASTAYLQINNLKNEDTATYFCSRSTMITTGGVFAYWGQGTLVTVSA VL: DVLMAQTPLSLPVSLGDQASISCRSSQSIVHSDGNTYLEWYLQKPGQSPKLLIYKVSNRFSGVPDRFSGSGSGTDFTLKISRVEAEDLGVYYCFQGSHVPWTFGGGTKLEIKR |  |  |  | 0.107 nM | 1.93 nM | 0.072 nM
PR302309 (antibody, human IgG1, kappa, V domains shown, Mouse variable domains, expressed recombinantly with human IgG1 wildtype Fc; also called Series 7 mAb) VH: QIQLVQSGPELKKPGETVKISCKASGYTFTNYGMNWVKQAPGKVLKWMGWINTYTGEPIYTDDFKGRFAFSLETSASTAYLQINNLKNEDTATYFCSRSTMITTGGVFAYWGQGTLVTVSA VL: DVLMAQTPLSLPVSLGDQASISCRSSQTIVHSDGNTYLEWYLQKPGQSPKLLIYKVSNRFSGVPDRFSGSGSGTDFTLKISRVEAEDLGVYYCFQGSHVPWTFGGGTKLEIKR |  |  |  | 0.028 nM | 1.38 nM | 0.015 nM
PR301806 (antibody, human IgG1, kappa, V domains shown, Mouse variable domains, expressed recombinantly with human IgG1 wildtype Fc; also called Series 6 mAb) VH: QVQLQQPGAELVKPGTSVKMSCKASGYTFTSYWMHWVKQRPGQGLEWIGDIYPGSDSTNYNEKFKSKASLTVDTSSSTAYMQLSSLTSEDSAVYYCARSITTTTFWYFDVWGAGTTVTVSS VL: DVLMTQTPLSLPVSLGDQASISCRSSQSFVYSNGNTYLQWYLQKPGQSPKLLIYKVSNRFSGVPDRFSGSGSGTDFTLKISRVEAEDLGVYYCFQGSHVPPTFGAGTKLELKR |  |  |  | 0.013 nM | 4.53 nM | 0.006 nM
PR302324 (antibody, human IgG1, kappa, V domains shown, Mouse variable domains, expressed recombinantly with human IgG1 wildtype Fc; also called Series 10 mAb) VH: EVQLQQSGPELVKPGASVKMSCKASGYTFTDYFMKWVKQSHGGSLEWIGVISPNNGDTFYNQKFKGKATLTVDKSSSTAFMQLNSLTSEDSAVYSCARGTDRALFAYWGQGTLVTVSA VL: DVLMTQTPLSLPVSLGDQASISCRSSQSIVHSDGNTYLEWYLQRPGQSPKLLIYKVSNRFSGVPDRFSGSGSGTDFTLKISRVGAEDLGVYYCFQGSHIPWTFGGGTKLEVKR |  |  |  | 0.019 nM | 0.498 nM | 0.016 nM
PR301780 (antibody, human IgG1, kappa, V domains shown, Mouse variable domains, expressed recombinantly with human IgG1 wildtype Fc; also called Series 7 mAb) VH: QIQLVQSGPELKKPGETVKISCKASGYTFTNFGLNWVKQAPGKGLKWMGWINTYTGEPTYTDDFKGRFAFSLETSASTAYLQINNLKKEDTATYFCARGTYRDDGAWFAYWGQGTLVTVSA VL: DVLMTQTPLSLPVSLGDQASISCRSSQIIVHSNGNTYLEWYLQKPGQSPKLLIYKVSNRFSGVPDRFSGSGSGTDFTLKISRVEAEDLGVYHCFQGSHVPWTFGGGTKLEIKR |  |  |  | 0.938 nM | 61.1 nM | 0.03 nM
PR302341 (antibody, human IgG1, kappa, V domains shown, Mouse variable domains, expressed recombinantly with human IgG1 wildtype Fc; also called Series 10 mAb) VH: EVQLQQSGPELVKPGASVKMSCKASGYTFTDYFMKWVKQSHGESLEWIGVINPNNGDIFYNQKFKGKATLTVDKSSSTAFMQLNSLTSEDSAVYSCARGTDRALFAYWGQGTLVAVSA VL: DVLMTQTPLSLPVSLGDQASISCRSGQSIVHSDGNTYLEWYLQRPGQSPRLLIYKVSNRFSGVPDRFSGSGSGTDFTLKISRVGAEDLGIYYCFQGSHIPWTFGGGTKLEVKR |  |  |  | 0.023 nM | 0.503 nM | 0.017 nM
